In the supplement of paper PMC12764529:
± gives the half width of the 95% confidence interval.

Columns and labels:
[1] = folding stability dG unfold from trypsin proteolysis; higher = more stable
How it was run: (§1)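 Unfolding free energy was derived, per protease or combined, by relating Bayesian-fitted K50 values from sequencing counts to a sequence-predicted unfolded-state K50 and a shared folded-state K50. The underlying digests exposed cysteine-free mini-proteins under 80 residues, in a PA-tagged cDNA display construct, to trypsin and chymotrypsin at 11 threefold-diluted concentrations and to a no-protease condition. A filter kept only designs with AlphaFold2 dimer inter-PAE above 15.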

[2] = folding stability dG unfold from chymotrypsin proteolysis; higher = more stable
How it was run: as §1

[3] = folding stability dG unfold (combined trypsin and chymotrypsin); higher = more stable
How it was run: as §1

Row | Sequence | folding stability dG unfold [1] [kcal/mol] | folding stability dG unfold [2] [kcal/mol] | folding stability dG unfold [3] [kcal/mol]
1 | SAGGSAGGSIEIPGGYTIPSSLSEEEAKEAAKKLFLEKNPELGVKEVEVKVETKNGKKTITVVKSAGGSAGG [r6_558_JUSTAS] | 0.641 ± 0.074 | 0.857 ± 0.14 | 0.714 ± 0.28
2 | SAGGSAGGSIKPGEEVTINFLVPPGNIPEFANELMKQDGIKDIEVKYQPFPNWYMVDITIRVKSAGGSAGGS [r12_993_TrROS] | 0.863 ± 0.029 | -0.0266 ± 0.14 | 0.52 ± 0.096
3 | SAGGSAGGSKAEVVEEKEIFTFPNGFVIKLTKVKNENGEEFEFIEIVPLPPELTEEELKKLKESAGGSAGGS [r12_775_TrROS_Hall] | 0.711 ± 0.033 | 2.14 ± 0.023 | 1.79 ± 0.065
4 | SAGGSAGGSKEFKVEEVGGRLYITFPDGTVVEVRFDKPVTFDLKTGKLYFPEGAEVEKRRLKESAGGSAGGS [r20_158_TrROS_Hall] | 0.0253 ± 0.24 | 1.19 ± 0.12 | 0.905 ± 0.26
5 | SAGGSAGGSKEKKTVILRIKIYVKNENGELIEEIEIPLKDLTLEELKELAKKLNVKVEIELLPSAGGSAGGS [r12_398_TrROS_Hall] | 1.69 ± 0.16 | 3.5 ± 0.14 | 3.05 ± 0.2
6 | SAGGSAGGSKEKKYLVIELKLKVPPGMSPEELAKLLESLPGLKVVEIVEVDEESGTVKIVVELSAGGSAGGS [r12_712_TrROS_Hall] | 2.02 ± 0.046 | 3.54 ± 0.096 | 3.07 ± 0.16
7 | SAGGSAGGSKEPIRVDEFEWRKNKDGMDMVQVTFPNNGKDIHLPPEHLDNLEPGDEIPLDDLISAGGSAGGS [r20_3_TrROS] | -0.677 ± 0.12 | 0.192 ± 0.17 | -0.138 ± 0.2
8 | SAGGSAGGSKEVKTIKVEITITDKNGKKITVKAEIVYDKKTKKYYIKIRNKKTNKTYIIELKLSAGGSAGGS [r20_71_TrROS_Hall] | 3.29 ± 0.088 | 4.753 ± 0.047 | 4.47 ± 0.08
9 | SAGGSAGGSKFEITEVSVELVEVDGKLYLKVSMTIKNEDGSTYKISLVYDLENNELYLSIEKVSAGGSAGGS [r12_1035_TrROS_Hall] | 4.12 ± 0.43 | 5.7 ± 0.16 | 5.87 ± 0.37
10 | SAGGSAGGSKFKIVSIEVTVETNEDGSKTLTVKIRLEDGSEITITVPENATLEEVLKLLKELASAGGSAGGS [r12_1047_TrROS_Hall] | 3.88 ± 0.2 | 4.42 ± 0.051 | 4.31 ± 0.11
11 | SAGGSAGGSKGPMITITLFILVRPDDGKYYATVIEMYIYPNGGIDIEMEMIPADDIPPGDIVISAGGSAGGS [r12_38_TrROS] | 2.94 ± 0.17 | 4.74 ± 0.15 | 4.55 ± 0.22
12 | SAGGSAGGSKIEFTVPDNDELIEYIRKWFQDNGGQIKNIKIEPTPPNQVKVEIEINPGDPWFQSAGGSAGGS [r12_647_TrROS] | 1.74 ± 0.041 | 2.36 ± 0.077 | 2.2 ± 0.14
13 | SAGGSAGGSKIEITVKTKEELLEAIRKLAEEKGYEIVSIKIEKLPDGTYKVTIEIRKNDPLLKSAGGSAGGS [r12_647_TrROS_Hall] | 1.35 ± 0.083 | 2.79 ± 0.076 | 2.38 ± 0.12
14 | SAGGSAGGSKIKPGEKVEIKLKIKVKDKNGKEKEIELTFSKDMTVEEIKKLLKELEKKGFEIESAGGSAGGS [r20_27_TrROS_Hall] | 1.56 ± 0.12 | 3.23 ± 0.24 | 2.72 ± 0.33
15 | SAGGSAGGSKIPPGEPVTLPIFFIIWDPENGRPYAMRMEITFDAPDGNITKMNEEVIPPGQPFSAGGSAGGS [r12_868_TrROS] | 1.5 ± 0.056 | 1.49 ± 0.17 | 1.54 ± 0.14
16 | SAGGSAGGSKITVERNEDGELFVRITFKDGKTITIKAKSVEELKEKLKELGFDVKVEVVERKPSAGGSAGGS [r20_124_TrROS_Hall] | 2.74 ± 0.084 | 4.58 ± 0.071 | 4.18 ± 0.087
17 | SAGGSAGGSKITVHRNPPGYYVIRIHGPGPITIMIPPKDADELANKLKDLGFDMKVEVYPLDDSAGGSAGGS [r20_124_TrROS] | 1.23 ± 0.028 | 1.05 ± 0.1 | 1.1 ± 0.11
18 | SAGGSAGGSKKDPEDNPEQAKPPIPPIRVEIYPPDGQPETFEFHSLEEITEWIQERGYTVKIESAGGSAGGS [r12_244_TrROS] | 0.668 ± 0.022 | 1.12 ± 0.051 | 0.974 ± 0.065
19 | SAGGSAGGSKKIKITVVVPKEEAEKLLKELEKAGYKIVSVEKKEIPENELVVIEIVIEKPEELSAGGSAGGS [r12_445_TrROS_Hall] | 3.09 ± 0.14 | 4.13 ± 0.24 | 3.65 ± 0.31
20 | SAGGSAGGSKKKIKVIIEVEVNGKKYKIEVEAETEEEAKKKAEEAIKELKKKFPNVKIKKIKPSAGGSAGGS [r12_230_TrROS_Hall] | 2.38 ± 0.13 | 4.08 ± 0.25 | 3.51 ± 0.26
21 | SAGGSAGGSKKKKKKKKKIKVLIRNKKTGKWFEAEAEVVDGELYIKVNGKIYKIKGPVEIELVSAGGSAGGS [r12_683_TrROS_Hall] | 2.38 ± 0.043 | 3.686 ± 0.019 | 3.3 ± 0.048

Row | Sequence | folding stability dG unfold [1] [kcal/mol] | folding stability dG unfold [2] [kcal/mol] | folding stability dG unfold [3] [kcal/mol]
22 | SAGGSAGGSKKKKVIEIKISEEELKKLGLTKEEIAKKLAEKFPNIKKNVRIEKNKDGTLKIYVSAGGSAGGS [r12_50_TrROS_Hall] | 1.22 ± 0.072 | 1.27 ± 0.092 | 1.18 ± 0.31
23 | SAGGSAGGSKKKLKLVIKLKKGEKAPTAEELKKKLEELGFEIKDIKVVEKDGELYVVLEIELKSAGGSAGGS [r12_1052_TrROS_Hall] | 2.67 ± 0.35 | 3.4 ± 0.14 | 3.24 ± 0.32
24 | SAGGSAGGSKKKNKPAPPVLVVKVEIVKIELSDEELEAIKKNKEKIKEIYLIKIEVTLVEPEESAGGSAGGS [r12_196_TrROS_Hall] | 1.17 ± 0.11 | 2.18 ± 0.062 | 1.94 ± 0.14
25 | SAGGSAGGSKKKTVEEILKELKKKKNKIIKIKYKDGSTYYINIKTGKIIKLKNIKNVKIEILPSAGGSAGGS [r20_44_TrROS_Hall] | 2.73 ± 0.14 | 4.44 ± 0.1 | 3.55 ± 0.32
26 | SAGGSAGGSKKKVTINIVLTVKPGETLTLTVEITIDGKKYKVTKTLTYDPKTNKLVLTATVEPSAGGSAGGS [r12_136_TrROS_Hall] | 3.78 ± 0.32 | 5.03 ± 0.24 | 5.03 ± 0.29
27 | SAGGSAGGSKKKYTVEELLKKLKPGDIALVKINGKWREVSVEELKKLPPGAEVEVEVFKLKPPSAGGSAGGS [r12_501_TrROS_Hall] | 2.84 ± 0.11 | 3.51 ± 0.072 | 3.34 ± 0.16
28 | SAGGSAGGSKKPKITITIEILVKNEDGKLYLFRIEIEINENGEISIKMEIFELKDIKPGDILLSAGGSAGGS [r12_38_TrROS_Hall] | 2.63 ± 0.19 | 3.94 ± 0.13 | 3.56 ± 0.38
29 | SAGGSAGGSKKPPIYKIEIEIDGKKLTIEAKSKEEALKALKEELKKKYPNLKITKIKIEKVKPSAGGSAGGS [r12_429_TrROS_Hall] | 1.52 ± 0.088 | 2.4 ± 0.14 | 2.14 ± 0.15
30 | SAGGSAGGSKKPVLAKIAILNSGSPEVAEELAKRLAAELGLSPDEVKVELHVIPVTAPGELLFSAGGSAGGS [r12_1066_TrMRF] | 0.465 ± 0.02 | 0.328 ± 0.063 | 0.416 ± 0.043
31 | SAGGSAGGSKKVEVEILLLLPESTTEEEAKALAEELAEKIKEATPADDVEVKVVILKVPKNALSAGGSAGGS [r12_522_TrMRF] | 2 ± 0.12 | 1.89 ± 0.048 | 1.92 ± 0.21
32 | SAGGSAGGSKKVKEVTITVKNKDGKTVKITKIYKKKDGSKYVLIKDKKTKKTYKISLEDLKKLSAGGSAGGS [r12_488_TrROS_Hall] | 1.11 ± 0.05 | 2.29 ± 0.076 | 1.8 ± 0.14
33 | SAGGSAGGSKKVKIIEIDLKDMSPEEILELIKKEKVDAIIIKSDTPEAKRLAEKLKEAGFKVISAGGSAGGS [r12_610_TrROS_Hall] | 1.46 ± 0.043 | 2.36 ± 0.055 | 2.05 ± 0.059
34 | SAGGSAGGSKLEEILKKLPPNAKITIEKDEETNVYTITITNKNGEKYTFTFSKEEVKKLLEKLSAGGSAGGS [r12_174_TrROS_Hall] | 3.13 ± 0.19 | 4.76 ± 0.24 | 4.62 ± 0.22
35 | SAGGSAGGSKLGVFEVGGKRYAVKVTDKNGKELTLAIPPELLKKLPKNLKVEVKEVKPGEPIPSAGGSAGGS [r12_419_TrMRF] | 0.218 ± 0.16 | 0.738 ± 0.23 | 0.635 ± 0.15
36 | SAGGSAGGSKLKIPIIRKFKPDEPLPTAEDVKAILEELGLDIKEVKVTYFPEYGYAIAEVEVSSAGGSAGGS [r12_1052_TrMRF] | 1.57 ± 0.033 | 1.24 ± 0.039 | 1.41 ± 0.067
37 | SAGGSAGGSKMLLVKVYVPEFDTVVVFEAPRDITIEEIEERLREAGFSVARIEVVEFDLPEGGSAGGSAGGS [r12_955_TrMRF] | 3.02 ± 0.049 | 3.766 ± 0.022 | 3.55 ± 0.071
38 | SAGGSAGGSKMRERTITFPNAKITIWYHPDGNVRMEVMNPGNGKPKREIWMKPGDIEEILKKFSAGGSAGGS [r20_129_TrROS] | 1.62 ± 0.043 | 2.58 ± 0.038 | 2.32 ± 0.049
39 | SAGGSAGGSKNGEPPPVPTITMRFKDPDKIRKLNKKAGLPIEHDPGNGYITFPYRQIDKILKASAGGSAGGS [r12_325_TrROS] | 3.98 ± 0.8 | 5.86 ± 0.32 | > 6
40 | SAGGSAGGSKNMVMVEIPFEHKVKQPDPPDGKWRQHEHKPTIPYMIPPEDAEELLNSPALKKISAGGSAGGS [r12_1015_TrROS] | 0.138 ± 0.2 | 0.0107 ± 0.21 | 0.043 ± 0.19
41 | SAGGSAGGSKPDEVEVIEIKVPPGARVRLPDGSVVEIKPGDPNTTYRIVVDKKNKKITIEPLDSAGGSAGGS [r12_338_TrROS_Hall] | 1.38 ± 0.12 | 1.43 ± 0.12 | 1.46 ± 0.27
